# Measured values: US20250353911A1 (INHIBRX BIOSCIENCES, published 2025)
# Positions count from the first letter of the chain named.
# B1: cx12007 (B10a.v2.4 VHH x hz4A01v51.12 VHH) (bispecific antibody)
# chain: EVQLLESGGGKVQPGGSLRLSCAASGSIANVDLMAWHRQAPGKQREPIAVINDAGSTYYAESVKGRFTISRDNAKNTLYLQMNSLRAEDTAVYYCNTATWRGGERYADWGQGTLVTVEPGSGGGSEVQLLESGGGKVQPGGSLRLSCAASGFTFSTSGMVWVRQAPGKGLEWVSTISDDARITVYAESVKGRFTISRDNAKNTVYLQMNSLRAEDTAVYYCATYRAGSRIGSYEDYYRGQGTLVTVEPGG
# B2: cx12003 (bispecific antibody)
# single polypeptide, format of FIG. 5(i): B1 chain with E1Q, K11E, E126Q, K136E
# notes: anti-FcRn VHH linked to anti-albumin VHH
# B3: cx12006 (bispecific antibody)
# single polypeptide, format of FIG. 5(i): B1 chain with E1Q, E126Q
# notes: as for B2
# B4: cx12008 (bispecific antibody)
# single polypeptide, format of FIG. 5(i): B1 chain with K11E, E118R, L130V, K136E, E247R
# notes: as for B2
# B5: cx12032 (B10a.v2.1 VHH x hz4A01v51 VHH) (bispecific antibody)
# chain: EVQLLESGGGEVQPGGSLRLSCAASGSIANVDLMAWHRQAPGKQREPIAVINDAGSTYYAESVKGRFTISRDNAKNTLYLQMNSLRAEDTAVYYCNTATWRGGERYADWGQGTLVTVKPEVQLVESGGGEVQPGGSLRLSCAASGFTFSTSGMVWVRQAPGKGLEWVSTISDDARITVYAESVKGRFTISRDNAKNTVYLQMNSLRAEDTAVYYCATYRAGSRIGSYEDYYRGQGTLVTVKPGG
# B6: 4A01v3 (Fc fusion)
# VHH: EVQLVESGGGEVQPGGSLRLSCAASGFAFSTSGMVWVRQAPGKGLEWVSTISDDARIIRYAESVKGRFTISRDNAKNTLYLQMNSLRAEDTAVYYCATYRAGSRIGSYEDYYRGQGTLVTVKP
# notes: also called Hz4A01v3; not shown: Human Fc carrier and its linker
# B7: 4A01v1 (Fc fusion)
# VHH: B6 VHH with A55S
# notes: also called Hz4A01v1; not shown: Human Fc carrier and its linker
# B8: 4A01v3-1 (Fc fusion, not shown: a dimerising Fc or GST; small tags and cut ends)
# VHH: B6 VHH with A28T
# notes: also called Hz4A01v3-1
# B9: 4A01v3-3 (Fc fusion, not shown: a dimerising Fc or GST; small tags and cut ends)
# VHH: B6 VHH with V35A
# notes: also called Hz4A01v3-3
# B10: 4A01v3-4 (Fc fusion)
# VHH: B6 VHH with V35S
# notes: also called Hz4A01v3-4; not shown: Human Fc carrier and its linker
# B11: 4A01v3-5 (Fc fusion)
# VHH: B6 VHH with V37Y
# notes: also called Hz4A01v3-5; not shown: Human Fc carrier and its linker
# B12: 4A01v3-7 (Fc fusion)
# VHH: B6 VHH with L79V
# notes: also called Hz4A01v3-7; not shown: Human Fc carrier and its linker
# B13: 4A01v3-8 (Fc fusion)
# VHH: B6 VHH with R113W
# notes: also called Hz4A01v3-8; not shown: Human Fc carrier and its linker
# B14: 4A01v9 (Fc fusion, not shown: a dimerising Fc or GST; small tags and cut ends)
# VHH: B6 VHH with A55T
# notes: also called Hz4A01v9
# B15: 4A01v4 (Fc fusion, not shown: a dimerising Fc or GST; small tags and cut ends)
# VHH: B6 VHH with D54E, A55S
# notes: also called Hz4A01v4
# B16: 4A01v5 (Fc fusion, not shown: a dimerising Fc or GST; small tags and cut ends)
# VHH: B6 VHH with D54E, A55G
# notes: also called Hz4A01v5
# B17: 4A01v6 (Fc fusion, not shown: a dimerising Fc or GST; small tags and cut ends)
# VHH: B6 VHH with D54S, A55G
# notes: also called Hz4A01v6
# B18: 4A01v8 (Fc fusion, not shown: a dimerising Fc or GST; small tags and cut ends)
# VHH: B6 VHH with D54N
# notes: also called Hz4A01v8
# B19: cx11383 (B10a.v1 VHH x hz4A01v51 VHH) (bispecific antibody)
# chain: EVQLLESGGGEVQPGGSLRLSCTASGSIANVDMMAWHRQAPGKQREPIAVINDGGSTSYADSVKGRFTISRDNAKNTLYLQMSSLRAEDTAVYYCNTATWRGGERYADWGQGTLVTVKPGSGGGSEVQLVESGGGEVQPGGSLRLSCAASGFTFSTSGMVWVRQAPGKGLEWVSTISDDARITVYAESVKGRFTISRDNAKNTVYLQMNSLRAEDTAVYYCATYRAGSRIGSYEDYYRGQGTLVTVKPGG
# Target: T1, Human serum albumin (HSA) (human, UniProt P02768 25-609)
# T1 construct: also called human albumin; recombinant human albumin
# Test: ELISA on coated human albumin, pH 7.4, HRP detection antibody, A450
# Experimental: (§1) 96-well ELISA plates were coated with albumin protein in PBS overnight at 4° C., washed with PBS-T and then blocked with 5% milk powder in PBS-T for 1 h at room temperature. Serial dilutions of test articles were prepared in PBS pH 7.4 or a buffer containing 20 mM His, 150 mM NaCl, pH 5.5 and added to the plates. Plates were incubated for 1 h at room temperature. After the incubation cells were washed in the respective buffer and then incubated for 30 min at room temperature with a HRP-conjugated antibody detecting the polypeptides. Plates were washed in their respective buffers and TMB substrate was added and color allowed to develop. TMB substrate was stopped with an equal volume of stop solution (1M H₂SO₄). Absorbance at 450 nm was measured with a 96 well plate reader.
# T1 sequence (P02768 25-609): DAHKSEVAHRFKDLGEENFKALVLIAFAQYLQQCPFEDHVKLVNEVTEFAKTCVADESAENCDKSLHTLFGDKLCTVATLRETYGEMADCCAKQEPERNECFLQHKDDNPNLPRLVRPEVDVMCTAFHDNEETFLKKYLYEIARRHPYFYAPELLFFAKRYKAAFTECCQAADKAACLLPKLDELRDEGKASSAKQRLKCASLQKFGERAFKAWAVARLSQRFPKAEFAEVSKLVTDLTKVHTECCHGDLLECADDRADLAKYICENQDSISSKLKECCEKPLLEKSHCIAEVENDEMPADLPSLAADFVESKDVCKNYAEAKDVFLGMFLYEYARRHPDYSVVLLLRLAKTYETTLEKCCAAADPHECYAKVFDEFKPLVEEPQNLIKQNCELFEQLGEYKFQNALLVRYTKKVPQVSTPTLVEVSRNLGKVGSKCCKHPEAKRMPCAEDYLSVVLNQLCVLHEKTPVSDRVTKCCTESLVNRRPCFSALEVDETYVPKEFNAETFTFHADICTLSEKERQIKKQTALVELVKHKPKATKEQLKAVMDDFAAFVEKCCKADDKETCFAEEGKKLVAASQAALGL
row,Binder,EC50 (read off the curve) [nM]
1,B1,~0.4
2,B2,~0.4
3,B3,~0.4
4,B4,~0.4

# Target: T1, Human serum albumin (HSA)
# Test: as above
# Remark: another data set of the same source
# Experimental: as §1
row,Binder,EC50 (read off the curve) [nM]
1,B5,~0.3

# Target: T1, Human serum albumin (HSA)
# Test: ELISA on coated human albumin, pH 5.5, HRP detection antibody, A450
# Experimental: as §1
row,Binder,EC50 (read off the curve) [nM]
1,B1,~0.4
2,B3,~0.4
3,B4,~0.4

# Target: T2, Rat serum albumin (RSA) (rat, UniProt P02770 25-608)
# T2 construct: Bought protein (Sigma); also called rat albumin
# Test: ELISA on coated rat albumin, anti-human Fc HRP, A650, one site-total binding fit
# Experimental: (§2) Medisorp plates were coated with albumin protein at 2 μg/ml, 50 μl/well at 4° C. overnight (human, murine, and rat albumin-Sigma, cynomolgus monkey albumin-Abcam). 1× Fish Gelatin (blocking agent, Bethyl Laboratories) was added to albumin-coated wells followed by a 1 hour incubation at RT. Titrations of sdAb fusion proteins (starting at 100 nM, across 1:3 or down 1:4) were added and incubated for 1 hour at RT. Plates were washed 3 times with 0.1% D-PBST, and then anti-human Fc HRP antibody (1:2000 in 0.1% D-PBST, Jackson) was added and incubated for 30 minutes at RT. Plates were washed 3 times with 0.1% D-PBST, and then TMB substrate was added. Absorbance at 650 nm was read on a plate reader (Molecular Devices) and data were plotted using equation one site-total binding (Model: Y=Bmax*X/(Kd+X)+NS*X+Background, GraphPad Prism).
# T2 sequence (P02770 25-608): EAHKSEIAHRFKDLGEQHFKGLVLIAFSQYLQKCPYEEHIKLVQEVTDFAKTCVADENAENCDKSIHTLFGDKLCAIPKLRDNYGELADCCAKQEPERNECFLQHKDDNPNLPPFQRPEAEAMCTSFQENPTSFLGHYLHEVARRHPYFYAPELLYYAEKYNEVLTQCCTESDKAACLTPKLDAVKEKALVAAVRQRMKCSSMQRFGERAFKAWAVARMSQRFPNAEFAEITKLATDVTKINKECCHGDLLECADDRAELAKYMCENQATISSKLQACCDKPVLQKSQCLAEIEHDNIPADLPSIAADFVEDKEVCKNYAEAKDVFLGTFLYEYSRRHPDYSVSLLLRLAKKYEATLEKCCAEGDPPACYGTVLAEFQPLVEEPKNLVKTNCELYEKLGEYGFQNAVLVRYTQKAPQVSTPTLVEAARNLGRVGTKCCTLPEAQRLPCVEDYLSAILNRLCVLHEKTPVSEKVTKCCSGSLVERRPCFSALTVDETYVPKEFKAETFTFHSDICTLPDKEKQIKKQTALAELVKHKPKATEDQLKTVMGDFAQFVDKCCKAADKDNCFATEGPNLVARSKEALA
Binder,Kd [nM],Bmax [A650]
B6,0.162,–
B7,0.184,1.28
B8,0.13,1.28
B9,0.152,1.32
B10,0.252,1.41
B11,0.162,1.35
B12,0.123,1.35
B13,0.169,–
B14,0.144,1.27

# Target: T2, Rat serum albumin (RSA)
# Test: as above
# Remark: another data set of the same source
# Experimental: as §2
Binder,Bmax [A650],Kd [nM]
B15,0.972,0.32
B16,1,0.26
B17,1.02,0.273
B18,1.01,0.328

# Target: T3, human FcRn/B2m heterodimer protein (human, UniProt P55899 24-297; P61769 21-119, limits assumed)
# T3 construct: also called FcRn (ELISA)
# Test: ELISA on coated human FcRn/B2m heterodimer, pH 7.4, HRP detection antibody, A450
# Experimental: 96-well ELISA plates were coated with human FcRn/B2m heterodimer protein in PBS overnight at 4° C., washed with PBST and then blocked with 3% BSA in PBST for 1 h at RT. Serial dilutions of test articles were prepared in PBST pH 7.4 and added to the plates. Plates were incubated for 1 h at room temperature. After the incubation cells were washed in the PBST and then incubated for 1 h at room temperature with a horse radish peroxidase (HRP)-conjugated antibody detecting the polypeptides. Plates were washed with PBS-T followed by addition of TMB substrate and color allowed to develop. TMB substrate was stopped with an equal volume of stop solution (1M H₂SO₄). Absorbance at 450 nm was measured with a 96 well plate reader (Emax, Molecular Devices). All data were plotted and analyzed using GraphPad Prism analysis software.
# T3 sequence (P55899 24-297 limits assumed, chain 1 of 2): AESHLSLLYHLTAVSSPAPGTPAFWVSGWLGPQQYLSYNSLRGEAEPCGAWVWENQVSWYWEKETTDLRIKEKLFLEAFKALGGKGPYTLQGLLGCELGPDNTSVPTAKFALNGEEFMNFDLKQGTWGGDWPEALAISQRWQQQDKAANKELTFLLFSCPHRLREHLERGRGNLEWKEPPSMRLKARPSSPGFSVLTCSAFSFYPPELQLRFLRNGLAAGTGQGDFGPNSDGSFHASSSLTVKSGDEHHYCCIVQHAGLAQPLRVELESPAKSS
# T3 sequence (P61769 21-119 limits assumed, chain 2 of 2): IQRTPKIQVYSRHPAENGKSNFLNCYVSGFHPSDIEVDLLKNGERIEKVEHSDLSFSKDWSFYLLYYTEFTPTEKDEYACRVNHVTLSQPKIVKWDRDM
row,Binder,binding result
1,B19,binds

# Target: T1, Human serum albumin (HSA)
# Test: ELISA on coated human albumin, anti-human Fc HRP, A650, one site-total binding fit
# Experimental: as §2
Binder,Kd [nM],Bmax [A650]
B6,0.124,–
B7,0.139,1.34
B8,0.123,1.32
B9,0.129,1.36
B10,0.151,1.43
B11,0.121,1.39
B12,0.121,1.4
B13,0.136,–
B14,0.115,1.35

# Target: T1, Human serum albumin (HSA)
# Test: as above
# Remark: another data set of the same source
# Experimental: as §2
Binder,Bmax [A650],Kd [nM]
B15,0.947,0.378
B16,0.957,0.276
B17,0.94,0.332
B18,0.955,0.428

# Target: T4, Murine serum albumin (MSA) (mouse, UniProt P07724 25-608)
# T4 construct: Bought protein (Sigma); also called murine albumin; mouse albumin
# Test: ELISA on coated murine albumin, anti-human Fc HRP, A650, one site-total binding fit
# Experimental: as §2
Binder,Kd [nM],Bmax [A650]
B6,0.121,–
B7,0.129,1.35
B8,0.109,1.29
B9,0.142,1.35
B10,0.241,1.4
B11,0.112,1.31
B12,0.111,1.32
B13,0.143,–
B14,0.112,1.3

# Target: T4, Murine serum albumin (MSA)
# Test: as above
# Remark: another data set of the same source
# Experimental: as §2
Binder,Bmax [A650],Kd [nM]
B15,1.1,0.25
B16,1.09,0.189
B17,1.09,0.206
B18,1.1,0.226

# Target: T5, Cynomolgus monkey serum albumin (CSA) (cynomolgus monkey, UniProt A2V9Z4 25-608)
# T5 construct: Bought protein (Abcam); also called cynomolgus monkey albumin
# Test: ELISA on coated cynomolgus monkey albumin, anti-human Fc HRP, A650, one site-total binding fit
# Experimental: as §2
# T5 sequence (A2V9Z4 25-608): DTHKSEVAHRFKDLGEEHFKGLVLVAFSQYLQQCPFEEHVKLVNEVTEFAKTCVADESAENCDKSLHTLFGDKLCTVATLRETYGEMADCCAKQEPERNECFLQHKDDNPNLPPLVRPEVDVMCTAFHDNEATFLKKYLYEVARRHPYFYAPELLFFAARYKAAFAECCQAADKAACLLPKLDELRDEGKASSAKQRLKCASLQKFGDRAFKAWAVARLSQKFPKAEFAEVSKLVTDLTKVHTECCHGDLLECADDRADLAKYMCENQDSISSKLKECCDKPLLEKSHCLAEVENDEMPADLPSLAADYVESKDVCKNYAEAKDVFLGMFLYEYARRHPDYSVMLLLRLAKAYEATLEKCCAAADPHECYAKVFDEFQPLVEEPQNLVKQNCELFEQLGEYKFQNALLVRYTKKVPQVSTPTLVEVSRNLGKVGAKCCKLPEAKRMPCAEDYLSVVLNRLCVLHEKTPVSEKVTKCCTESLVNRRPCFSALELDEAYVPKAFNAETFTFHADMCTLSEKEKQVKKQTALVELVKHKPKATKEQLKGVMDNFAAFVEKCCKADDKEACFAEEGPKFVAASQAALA
Binder,Bmax [A650],Kd [nM]
B7,1.31,0.157
B8,1.29,0.127
B9,1.35,0.142
B10,1.37,0.181
B11,1.34,0.126
B12,1.31,0.118
B13,1.35,0.147
B14,1.29,0.117

# Target: T5, Cynomolgus monkey serum albumin (CSA)
# Test: as above
# Remark: another data set of the same source
# Experimental: as §2
Binder,Bmax [A650],Kd [nM]
B6,0.994,0.338
B15,0.954,0.247
B16,0.939,0.203
B17,0.961,0.225

# Target: T6, human FcRn extracellular domain (ECD) fused to a transmembrane domain and an intracellular citrine, with … (human)
# T6 construct: also called human FcRn overexpressed on CHO cells; FcRn transfected CHO cells
# Test: flow cytometry, CHO cells transiently expressing human FcRn ECD-TM-citrine and B2M, pH 6, AF647 detection antibody
# Experimental: (§3) Binding of anti-FcRn VHH polypeptides to human FcRn at neutral (7.4) or endosomal (6) pH was tested by flow cytometry using a CHO-based overexpression system or isolated human peripheral blood mononuclear cells (PBMC).
# (§4) CHO cells were plated in 96-well plates at 50,000 cells per well and resuspended in PBS, pH 7.4 or a buffer containing 20 mM His, 150 mM NaCl, pH 6. Serial dilutions of test articles were prepared at 2× the final concentration in the buffers described above (pH 7.4 or pH 6) and added to the cell suspensions. Plates were incubated for 60 minutes at 4° C. After the incubation cells were washed in the respective buffer and then incubated for 30 minutes at 4° C. with a fluorescently labeled (AF647) antibody detecting the VHH polypeptides. Binding of the detection antibody to FcRn on transfected cells (citrine positive) was measured after a final wash using an iQue Screener (Sartorius).
# T6 sequence (chain, as listed by the source limits assumed, chain 1 of 2): as the sequence (P55899 24-297 limits assumed, chain 1 of 2) above
# T6 sequence (b2m, as listed by the source limits assumed, chain 2 of 2): as the sequence (P61769 21-119 limits assumed, chain 2 of 2) above
row,Binder,EC50 (read off the curve) [nM]
1,B1,~0.4
2,B2,~0.5
3,B3,~0.4
4,B4,~0.4

# Target: T6, human FcRn extracellular domain (ECD) …
# Test: as above
# Remark: another data set of the same source
# Experimental: as §3, §4
row,Binder,EC50 (read off the curve) [nM]
1,B5,~0.6

# Target: T6, human FcRn extracellular domain (ECD) …
# Test: flow cytometry, CHO cells transiently expressing human FcRn ECD-TM-citrine and B2M, pH 7.4, AF647 detection antibody
# Experimental: as §3, §4
row,Binder,EC50 (read off the curve) [nM]
1,B1,~0.3
2,B2,~0.3
3,B3,~0.3
4,B4,~0.7

# Target: T6, human FcRn extracellular domain (ECD) …
# Test: as above
# Remark: another data set of the same source
# Experimental: as §3, §4
row,Binder,EC50 (read off the curve) [nM]
1,B5,~0.5

# Target: T6, human FcRn extracellular domain (ECD) …
# Test: flow cytometry, HEK 293 cells transiently expressing human FcRn ECD-TM-citrine and B2M, pH 6; blocked ligand: biotinylated human IgG at 1 µM, detected with streptavidin-AF647
# Experimental: 50,000 transiently transfected HEK 293 cells were plated in 96-well plates and resuspended in 20 mM His, 150 mM NaCl, pH 6. Serial dilutions of test articles were prepared at 2× the final concentration in the buffer described above and added to the cell suspensions. Plates were incubated for 60 minutes at 4° C. […] Cells were then washed in the buffer described above and subsequently incubated for 30 minutes at 4° C. with a fluorescently labeled (AF647) streptavidin to detect IgG binding to FcRn. Binding of streptavidin to cells expressing FcRn (citrine positive) was measured after a final wash using an iQue Screener (Sartorius). The data were plotted and analyzed using GraphPad Prism analysis software.
row,Binder,IC50 (read off the curve) [nM]
1,B19,~7
